Reference: patent publication US20230140797A1 (published 2023)

Tests used:
[1] = target: T1, human FcγRIIb extracellular domain with C-terminal His tag (human, UniProt P31994 43-217); experiment: SPR
T1 sequence (looked up): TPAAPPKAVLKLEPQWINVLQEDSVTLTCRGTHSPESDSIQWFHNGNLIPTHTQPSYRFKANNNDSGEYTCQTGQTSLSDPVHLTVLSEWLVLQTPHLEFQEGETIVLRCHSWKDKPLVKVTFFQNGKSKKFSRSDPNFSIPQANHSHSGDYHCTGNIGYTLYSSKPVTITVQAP

[2] = target: T1, human FcγRIIb extracellular domain with …; experiment: SPR; remark: listed apart in the source

B1: IL6R-BP536/IL6R-L (antibody, human IgG1, kappa)
heavy: QVQLQESGPGLVKPSETLSLTCAVSGHSISHDHAWSWVRQPPGEGLEWIGFISYSGITNYNPSLQGRVTISRDNSKNTLYLQMNSLRAEDTAVYYCARSLARTTAMDYWGEGTLVTVSSASTKGPSVFPLAPSSKSTSGGTAALGCLVKDYFPEPVTVSWNSGALTSGVHTFPAVLQSSGLYSLSSVVTVPSSSLGTQTYICNVNHKPSNTKVDKKVEPKSCDKTHTCPPCPAPDLLGDDSVFLFPPKPKDTLMISRTPEVTCVVIDVSEEDGEVKFNWYVDGVEVHNAKTKPREEQDNSTYRVVSVLTVLHQDWLNGKEYKCKVSNKGLPRPIEKTISKAKGQPREPQVYTLPPSRDELTKNQVSLTCLVKGFYPSDIAVEWESNGQPENNYKTTPMVLDSDGSFFLYSKLTVDKSRWQQGNVFSCSVMHEALHNHYTQESLSLSP
light: not shown
In the case of B1, the “KD (IIaH)/KD (IIb)” value [1] is reported as 438 and the “KD (IIaR)/KD (IIb)” value [2] is reported as 26.6.

B2: IL6R-BP551/IL6R-L (antibody, human IgG1, kappa)
heavy: QVQLQESGPGLVKPSETLSLTCAVSGHSISHDHAWSWVRQPPGEGLEWIGFISYSGITNYNPSLQGRVTISRDNSKNTLYLQMNSLRAEDTAVYYCARSLARTTAMDYWGEGTLVTVSSASTKGPSVFPLAPSSKSTSGGTAALGCLVKDYFPEPVTVSWNSGALTSGVHTFPAVLQSSGLYSLSSVVTVPSSSLGTQTYICNVNHKPSNTKVDKKVEPKSCDKTHTCPPCPAPELLGDDSVFLFPPKPKDTLMISRTPEVTCVVIDVSEEDGDVKFNWYVDGVEVHNAKTKPREEQDNSTYRVVSVLTVLHQDWLNGKEYKCKVSNKALPRPIEKTISKAKGQPREPQVYTLPPSRDELTKNQVSLTCLVKGFYPSDIAVEWESNGQPENNYKTTPPVLDSDGSFFLYSKLTVDKSRWQQGNVFSCSVMHEALHNHYTQESLSLSP
light: not shown
In the case of B2, the “KD (IIaH)/KD (IIb)” value [1] is reported as 436 and the “KD (IIaR)/KD (IIb)” value [2] is reported as 38.1.

B3: IL6R-BP550/IL6R-L (antibody, human IgG1, kappa)
heavy: QVQLQESGPGLVKPSETLSLTCAVSGHSISHDHAWSWVRQPPGEGLEWIGFISYSGITNYNPSLQGRVTISRDNSKNTLYLQMNSLRAEDTAVYYCARSLARTTAMDYWGEGTLVTVSSASTKGPSVFPLAPSSKSTSGGTAALGCLVKDYFPEPVTVSWNSGALTSGVHTFPAVLQSSGLYSLSSVVTVPSSSLGTQTYICNVNHKPSNTKVDKKVEPKSCDKTHTCPPCPAPELLGDDSVFLFPPKPKDTLMISRTPEVTCVVIDVGEEDGDVKFNWYVDGVEVHNAKTKPREEQDNSTYRVVSVLTVLHQDWLNGKEYKCKVSNKALPRPIEKTISKAKGQPREPQVYTLPPSRDELTKNQVSLTCLVKGFYPSDIAVEWESNGQPENNYKTTPPVLDSDGSFFLYSKLTVDKSRWQQGNVFSCSVMHEALHNHYTQESLSLSP
light: not shown
With B3 the “KD (IIaH)/KD (IIb)” value [1] was 655 and the “KD (IIaR)/KD (IIb)” value [2] was 44.2.

B4: IL6R-BP539/IL6R-L (antibody, human IgG1, kappa)
heavy: QVQLQESGPGLVKPSETLSLTCAVSGHSISHDHAWSWVRQPPGEGLEWIGFISYSGITNYNPSLQGRVTISRDNSKNTLYLQMNSLRAEDTAVYYCARSLARTTAMDYWGEGTLVTVSSASTKGPSVFPLAPSSKSTSGGTAALGCLVKDYFPEPVTVSWNSGALTSGVHTFPAVLQSSGLYSLSSVVTVPSSSLGTQTYICNVNHKPSNTKVDKKVEPKSCDKTHTCPPCPAPELLGDDSVFLFPPKPKDTLMISRTPEVTCVVIDVGEEDGPVKFNWYVDGVEVHNAKTKPREEQDNSTYRVVSVLTVLHQDWLNGKEYKCKVSNKALPRPIEKTISKAKGQPREPQVYTLPPSRDELTKNQVSLTCLVKGFYPSDIAVEWESNGQPENNYKTTPPVLDSDGSFFLYSKLTVDKSRWQQGNVFSCSVMHEALHNHYTQESLSLSP
light: not shown
With B4 the “KD (IIaH)/KD (IIb)” value [1] was 667 and the “KD (IIaR)/KD (IIb)” value [2] was 38.
